Data: article PMC8746315, “Biophysical Characterization of Novel DNA Aptamers against K103N/Y181C Double Mutant HIV-1 Reverse Transcriptase”

Molecular target: HIV-1 reverse transcriptase, wild type (HIV-1, UniProt P04585;P04585 588-1147;588-1027)
Assay: SPR; SPR: 10 mM HEPES pH 7.5, 150 mM NaCl, 80 mM KCl, 5 mM MgCl2, 25 C, RT on NTA chip; NMR: 10 mM Tris-d11 pD 7.6, 200 mM KCl, 1.5 mM sodium azide, 4 mM MgCl2; inhibition assay 25 C, 30 min
Conditions: protein: recombinant; (NTA chip capture); copies: 1;1

Binder	Kd [nM]
AGTAAGACTATAATTCAGTCCTCATTGATTTCCCACATCG (ssDNA) [KY1]	2170
CACACTAAGGGAGTAGGAATCCGCGGTCACAATGTTCCTG (ssDNA) [KY22]	1040
CTATAGGGGGTTGCATCTTAGACATTAATGTTCATTTACA (ssDNA) [KY23]	55.2
CCAGAAAGCTCGGGTTCGTTCCACAAATAACACTTGCCC (ssDNA) [KY28]	1020
GTGCAAGCGTACGAAGGGATAATTCACTCTAGGAGCTTCT (ssDNA) [KY44]	2150
